# Substitutions are numbered along the chain they refer to.
# T1: mouse FcγRII extracellular domain, C-terminally His-tagged (mouse, UniProt P08101 30-210)
# T1 construct: the whole entry is named; also called mFcγRII; mFcgRII
# T1 sequence: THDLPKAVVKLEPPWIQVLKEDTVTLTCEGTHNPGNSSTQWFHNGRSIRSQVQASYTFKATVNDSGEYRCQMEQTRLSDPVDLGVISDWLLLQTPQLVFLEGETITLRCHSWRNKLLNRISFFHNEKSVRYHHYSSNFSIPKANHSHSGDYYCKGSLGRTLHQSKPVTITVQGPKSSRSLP
# T2: mouse FcγRIII extracellular domain, C-terminally His-tagged (mouse, UniProt P08508 31-215)
# T2 construct: the whole entry is named; also called mFcγRIII; mFcgRIII
# T2 chain: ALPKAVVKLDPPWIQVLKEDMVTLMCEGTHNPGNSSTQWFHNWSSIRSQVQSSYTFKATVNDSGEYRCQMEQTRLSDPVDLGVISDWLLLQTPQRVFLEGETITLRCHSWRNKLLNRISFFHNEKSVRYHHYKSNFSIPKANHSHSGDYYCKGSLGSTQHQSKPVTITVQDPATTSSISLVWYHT
# T3: mouse FcγRII (mouse, UniProt P08101 30-210)
# T3 construct: Extracellular domain with C-terminal His tag, made in FreeStyle 293 cells; also called mFcγRII; mFcgRII
# T3 sequence: T1 sequence
# T4: mouse FcγRIII (mouse, UniProt P08508 31-215)
# T4 construct: Extracellular domain with C-terminal His tag, made in FreeStyle 293 cells; also called mFcγRIII; mFcgRIII
# T4 chain: T2 chain
# B1: H237-MB535/MRAL-k0 (antibody, mouse IgG1, kappa)
# heavy: QVQLQESGPGLVKPSETLSLTCAVSGHSISHDHAWSWVRQPPGEGLEWIGFISYSGITNYNPSLQGRVTISRDNSKNTLYLQMNSLRAEDTAVYYCARSLARTTAMDYWGEGTLVTVSSAKTTPPSVYPLAPGSAAQTNSMVTLGCLVKGYFPEPVTVTWNSGSLSSGVHTFPAVLQSDLYTLSSSVTVPSSTWPSETVTCNVAHPASSTKVDKKIVPRDCGCKPCICQPNEVEEVFIFPPKPKDVLTITLTPKVTCVVVDISKDDPEVQFSWFVDDVEVHTAQTQPREEQFNLTFRSVSELPIMHQDWLNGKEFKCRVNSDAFPAPIERTISKTKGRPKAPQVYTIPPPKEQMAKDKVSLTCMITDFFPEDITVEWQWNGQPAENYKNTQPIMDTDGSYFVYSKLNVQKSNWEAGNTFTCSVLHEGLHNHHTEKSLSHSPGK
# light: not shown
# notes: copies: 2 + 2
# B2: H237-MB537/MRAL-k0 (antibody, mouse IgG1, kappa)
# heavy: B1 heavy with N320D
# light: not shown
# notes: also called M6537; copies: 2 + 2
# B3: H237-MB536/MRAL-k0 (antibody, mouse IgG1, kappa)
# heavy: B1 heavy with L294S, N320D
# light: not shown
# notes: copies: 2 + 2
# B4: H237-MB541/MRAL-k0 (antibody)
# heavy: B1 heavy with Q229E, E235M, D322A
# light: not shown
# notes: copies: 2 + 2
# B5: H237-MB528/MRAL-k0 (antibody, mouse IgG1, kappa)
# heavy: B1 heavy with R330K
# light: not shown
# notes: copies: 2 + 2
# B6: H237-MB546/MRAL-k0 (antibody)
# heavy: B1 heavy with Q229E, E235M, N320D, D322A
# light: not shown
# notes: copies: 2 + 2
# B7: H237-MB526/MRAL-k0 (antibody, mouse IgG1, kappa)
# heavy: B1 heavy with D322A, R330K
# light: not shown
# notes: copies: 2 + 2
# B8: H237-MB515/MRAL-k0 (antibody, mouse IgG1, kappa)
# heavy: B1 heavy with Q229E, E235M, L294S, D322A, R330K
# light: not shown
# notes: Template; copies: 2 + 2
# B9: H237-MB540/MRAL-k0 (antibody, mouse IgG1, kappa)
# heavy: B1 heavy with Q229E, E235M, R330K
# light: not shown
# notes: copies: 2 + 2
# B10: H237-MB547/MRAL-k0 (antibody, mouse IgG1, kappa)
# heavy: B1 heavy with Q229E, E235M
# light: not shown
# notes: copies: 2 + 2
# B11: H237-MB542/MRAL-k0 (antibody, mouse IgG1, kappa)
# heavy: B1 heavy with Q229E, E235M, L294S, N320D, R330K
# light: not shown
# notes: copies: 2 + 2
# B12: H237-MB545/MRAL-k0 (antibody, mouse IgG1, kappa)
# heavy: B1 heavy with Q229E, E235M, N320D, R330K
# light: not shown
# notes: copies: 2 + 2
# B13: H237-MB539/MRAL-k0 (antibody, mouse IgG1, kappa)
# heavy: B1 heavy with Q229E, E235M, N320D, D322A, R330K
# light: not shown
# notes: copies: 2 + 2
# B14: H237-MB541/MRAL-k0 (antibody, mouse IgG1, kappa)
# heavy: B1 heavy with Q229E, E235M, D322A
# light: not shown
# notes: copies: 2 + 2
# B15: H237-MB538/MRAL-k0 (antibody, mouse IgG1, kappa)
# heavy: B1 heavy with Q229E, E235M, D322A, R330K
# light: not shown
# notes: copies: 2 + 2
# B16: H237-MB548/MRAL-k0 (antibody, mouse IgG1, kappa)
# heavy: B1 heavy with Q229E, E235M, L294S, N320D
# light: not shown
# notes: copies: 2 + 2
# B17: H237-MB546/MRAL-k0 (antibody, mouse IgG1, kappa)
# heavy: B1 heavy with Q229E, E235M, N320D, D322A
# light: not shown
# notes: copies: 2 + 2
# B18: H237-MB543/MRAL-k0 (antibody, mouse IgG1, kappa)
# heavy: B1 heavy with Q229E, E235M, L294S, N320D, D322A
# light: not shown
# notes: copies: 2 + 2
# B19: H237-MB549/MRAL-k0 (antibody, mouse IgG1, kappa)
# heavy: B1 heavy with Q229E, E235M, N320D
# light: not shown
# notes: copies: 2 + 2
# B20: H237-MB544/MRAL-k0 (antibody, mouse IgG1, kappa)
# heavy: B1 heavy with Q229E, E235M, L294S
# light: not shown
# notes: copies: 2 + 2
# Target: T1, mouse FcγRII extracellular domain, …
# Test: SPR Biacore T200, KD ratio, template MB476
# From the text: (§1) The antibody H chain variable region used was the variable region H237 (SEQ ID NO: 1) of the H chain VH3-IgG1 of the anti-IL-6 receptor antibody Fv4-IgG1 described in WO2009/125825. The antibody L chain commonly used was the L chain MRAL-k0 (SEQ ID NO: 2) of the anti-IL-6 receptor antibody tocilizumab. H237-MB476/MRAL-k0 and H237-MB515/MRAL-k0 were used as templates to introduce new alterations. These variants were expressed and purified by the method of Reference Example 1 and evaluated for their binding to mFcγRII and mFcγRIII by the method of Reference Example 2 using Biacore T200.
# (§2) Each altered antibody was analyzed for its interaction with each Fcγ receptor prepared above using Biacore T100 (GE Healthcare Japan Corp.), Biacore T200 (GE Healthcare Japan Corp.), Biacore A100, or Biacore 4000. The running buffer used was HBS-EP+ (GE Healthcare Japan Corp.). The assay temperature was set to 25° C. The sensor chips used were chips prepared by immobilizing Protein L (ACTIGEN or BioVision) onto Series S Sensor Chip CM5 (GE Healthcare Japan Corp.) or Series S Sensor Chip CM4 (GE Healthcare Japan Corp.) by the amine coupling method.
# (§3) In order to calculate the KD value of each altered antibody for FcγR, kinetic analysis was conducted according to the following method: first, the antibody of interest was captured onto any of these chips and allowed to interact with mFcγR diluted with a running buffer. For the obtained sensorgram, the assay results were globally fit into the 1:1 Langmuir binding model using Biacore Evaluation Software to calculate an association rate constant ka (L/mol/s) and a dissociation rate constant kd (1/s). From these values, the dissociation constant KD (mol/L) was calculated.
row,Binder,relative mFcγRII-binding activity (template = 1)
1,B1,1.61 fold
2,B2,1.95 fold
3,B3,1.52 fold

# Target: T2, mouse FcγRIII extracellular domain, …
# Test: SPR Biacore T200, KD ratio, template MB476
# From the text: as §1, §2, §3
row,Binder,relative mFcγRIII-binding activity (template = 1)
1,B1,3.21 fold
2,B2,3.36 fold
3,B3,2.9 fold

# Target: T3, mouse FcγRII
# Test: SPR (Biacore), antibody captured on Protein L
row,Binder,Kd
1,B4,2.04 nM
2,B5,0.56 nM
3,B6,1.33 nM
4,B7,0.904 nM

# Target: T4, mouse FcγRIII
# Test: SPR (Biacore), antibody captured on Protein L
row,Binder,Kd
1,B4,86.4 nM
2,B5,19.3 nM
3,B6,50 nM
4,B7,33 nM

# Target: T1, mouse FcγRII extracellular domain, …
# Test: SPR Biacore T200, KD ratio, template MB515
# From the text: as §1, §2, §3
row,Binder,relative mFcγRII-binding activity (template = 1)
1,B8,1 fold
2,B9,1.09 fold
3,B10,1.24 fold
4,B11,2.8 fold
5,B12,1.19 fold
6,B13,0.77 fold
7,B14,0.75 fold
8,B15,0.63 fold
9,B16,2.6 fold
10,B17,1.15 fold
11,B18,1.42 fold
12,B19,1.53 fold
13,B20,2.01 fold

# Target: T2, mouse FcγRIII extracellular domain, …
# Test: SPR Biacore T200, KD ratio, template MB515
# From the text: as §1, §2, §3
row,Binder,relative mFcγRIII-binding activity (template = 1)
1,B8,1 fold
2,B9,2.15 fold
3,B10,3.43 fold
4,B11,2.57 fold
5,B12,2.02 fold
6,B13,1.45 fold
7,B14,2.48 fold
8,B15,1.3 fold
9,B16,2.99 fold
10,B17,4.28 fold
11,B18,1.69 fold
12,B19,4.11 fold
13,B20,2.45 fold

# Target: T1, mouse FcγRII extracellular domain, …
# Test: SPR Biacore T200, KD ratio
# From the text: as §1, §2, §3
Binder,relative mFcγRII-binding activity (mIgG1 = 1),relative mFcγRII-binding activity (H237-mIgG1/MRAL-k0 = 1),relative mFcγRII-binding activity (template H237-MB515/MRAL-k0 = 1)
B8,137 fold,–,–
B9,149 fold,–,–
B10,170 fold,–,–
B11,384 fold,≥ 350 fold,≥ 1.4 fold
B12,163 fold,–,–
B13,105 fold,–,–
B1,422 fold,–,–
B14,103 fold,–,–
B2,510 fold,–,–
B15,86.2 fold,–,–
B16,357 fold,≥ 350 fold,≥ 1.4 fold
B3,396 fold,–,–
B17,158 fold,–,–
B18,195 fold,–,≥ 1.4 fold
B19,210 fold,–,–
B20,276 fold,–,≥ 1.4 fold

# Target: T2, mouse FcγRIII extracellular domain, …
# Test: SPR Biacore T200, KD ratio
# From the text: as §1, §2, §3
row,Binder,relative mFcγRIII-binding activity (mIgG1 = 1)
1,B8,1.3 fold
2,B9,2.8 fold
3,B10,4.5 fold
4,B11,3.4 fold
5,B12,2.7 fold
6,B13,1.9 fold
7,B1,8.5 fold
8,B14,3.3 fold
9,B2,8.9 fold
10,B15,1.7 fold
11,B16,3.9 fold
12,B3,7.7 fold
13,B17,5.6 fold
14,B18,2.2 fold
15,B19,5.4 fold
16,B20,3.2 fold

# Target: T3, mouse FcγRII
# Test: SPR (Biacore), KD of H237-mIgG1/MRAL-k0 / KD of variant
# Description: as §2, §3
row,Binder,relative mFcγRII-binding activity (mIgG1 = 1)
1,B4,103 fold
2,B5,375 fold
3,B6,158 fold
4,B7,232 fold

# Target: T4, mouse FcγRIII
# Test: as above
# Description: as §2, §3
row,Binder,relative mFcγRIII-binding activity (mIgG1 = 1)
1,B4,3.3 fold
2,B5,14.6 fold
3,B6,5.6 fold
4,B7,8.5 fold
